According to paper PMC3741289:

Key:
[1] = target: wild type HspB5 (αB-crystallin) (human) (UniProt P02511); test: SEC; cells treated for 2 h with 60 µM menadione before lysis; 10,000×g supernatant on Sepharose 6B in TEM buffer; fractions immunoblotted
[2] = target: wild type HspB5 (αB-crystallin) (human) (UniProt P02511); test: SEC; untreated Neo, WT or R120G HeLa cells lysed in TEM buffer with 0.1% Triton X-100; 10,000×g supernatant on a Sepharose 6B column (1×100 cm) in TEM buffer (20 mM Tris-HCl pH 7.4, 20 mM NaCl, 5 mM MgCl2, 0.1 mM EDTA); pooled fractions immunoblotted
[3] = target: wild type HspB5 (αB-crystallin) (human) (UniProt P02511); test: co-IP; as the 150 mM experiment, but washes of the immunoprecipitated proteins in IPP300 buffer (0.3 M NaCl)
[4] = target: HspB1 (Hsp27) (human (endogenous in HeLa)) (UniProt P04792); test: as above
[5] = target: HspB1 (Hsp27) (human (endogenous in HeLa)) (UniProt P04792); test: co-IP; pooled gel filtration fractions (pool I of WT cells, pool II of R120G cells) with anti-HspB1 or anti-HspB5 antibody, 4 h at 4°C, protein G sepharose; washes in IPP150 (20 mM Tris-HCl pH 8, 150 mM NaCl, 0.05% NP-40); immunoblot of total, precipitate and depleted supernatant

Sequence of wild type HspB5 (αB-crystallin) (human) (P02511 whole entry): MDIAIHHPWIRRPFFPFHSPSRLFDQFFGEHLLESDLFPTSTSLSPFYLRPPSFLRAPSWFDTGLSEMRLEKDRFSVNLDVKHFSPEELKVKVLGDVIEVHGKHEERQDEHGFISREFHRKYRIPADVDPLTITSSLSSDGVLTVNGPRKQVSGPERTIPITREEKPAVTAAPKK
Sequence of HspB1 (Hsp27) (human (endogenous in HeLa)) (P04792 whole entry): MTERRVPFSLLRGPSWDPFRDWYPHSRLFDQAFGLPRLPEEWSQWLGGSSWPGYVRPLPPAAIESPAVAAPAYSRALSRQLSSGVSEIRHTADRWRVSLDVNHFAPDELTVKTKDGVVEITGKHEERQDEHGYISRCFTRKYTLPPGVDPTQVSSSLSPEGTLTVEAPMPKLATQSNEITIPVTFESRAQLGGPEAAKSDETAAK

| Substance | percent of the soluble phosphorylated form in the complex [1] | percent of the total cellular content of the phosphorylated form in the complex [1] | further results |
| --- | --- | --- | --- |
| HspB1 (Hsp27) (from UniProt P04792 1-205) (natural protein) |  |  | percent of soluble HspB1 back in the small oligomers (out of the complex) [1]: 38%; percent of HspB1 sharing the native size of HspB5 [2]: 90%; percent of the partner removed from the complex by the 300 mM NaCl wash [3]: 40% |
| HspB1 phosphorylated at serine 15 (from UniProt P04792 1-205) (natural protein) | 56% | 28% |  |
| HspB1 phosphorylated at serine 78 (from UniProt P04792 1-205) (natural protein) | 65% | 31% |  |
| HspB1 phosphorylated at serine 82 (from UniProt P04792 1-205) (natural protein) | 51% | 27% | percent of the total cellular content of the phosphorylated form in the complex [2]: 56% |
| wild type HspB5 (αB-crystallin) (from UniProt P02511 1-175) (natural protein) |  |  | percent of the partner removed from the complex by the 300 mM NaCl wash [4]: 40%; percent of the proteins in the pooled fractions that were in the complex [5]: 100% |
